Experimental data from patent US20240293512A1 (HANMI PHARM, published 2024).
Bridge positions count the residues as written; N and C are the ends. Square brackets hold non-standard residues; d marks the D form. Ends that are not written are not given here. * marks the point of attachment. Acetyl(2-(4-imidazolyl)) = O=C(Cc1c[nH]cn1)*; Aib = CC(C)(N)C(=O)O

What was measured:
Test in all cases: cell-based or functional assay
[1] = molecular target: T1, human GIP receptor (human, UniProt P48546 22-466)
T1 sequence (looked up): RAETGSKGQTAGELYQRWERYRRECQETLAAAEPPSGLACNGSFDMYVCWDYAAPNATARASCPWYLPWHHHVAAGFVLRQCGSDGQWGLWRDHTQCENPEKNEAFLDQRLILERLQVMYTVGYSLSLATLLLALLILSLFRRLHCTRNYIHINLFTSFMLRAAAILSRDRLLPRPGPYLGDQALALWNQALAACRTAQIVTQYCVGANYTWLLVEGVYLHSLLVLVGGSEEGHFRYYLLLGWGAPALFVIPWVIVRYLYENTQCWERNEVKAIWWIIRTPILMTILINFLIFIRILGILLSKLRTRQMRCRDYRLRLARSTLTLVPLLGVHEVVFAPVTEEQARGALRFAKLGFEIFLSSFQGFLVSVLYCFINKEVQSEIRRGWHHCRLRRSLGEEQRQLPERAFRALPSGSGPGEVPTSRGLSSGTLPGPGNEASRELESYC

[2] = molecular target: human GLP-1 receptor (human, UniProt P43220 24-463)
[3] = molecular target: human GCG receptor (human, UniProt P47871 26-477)
Sequence of human GCG receptor (P47871 26-477): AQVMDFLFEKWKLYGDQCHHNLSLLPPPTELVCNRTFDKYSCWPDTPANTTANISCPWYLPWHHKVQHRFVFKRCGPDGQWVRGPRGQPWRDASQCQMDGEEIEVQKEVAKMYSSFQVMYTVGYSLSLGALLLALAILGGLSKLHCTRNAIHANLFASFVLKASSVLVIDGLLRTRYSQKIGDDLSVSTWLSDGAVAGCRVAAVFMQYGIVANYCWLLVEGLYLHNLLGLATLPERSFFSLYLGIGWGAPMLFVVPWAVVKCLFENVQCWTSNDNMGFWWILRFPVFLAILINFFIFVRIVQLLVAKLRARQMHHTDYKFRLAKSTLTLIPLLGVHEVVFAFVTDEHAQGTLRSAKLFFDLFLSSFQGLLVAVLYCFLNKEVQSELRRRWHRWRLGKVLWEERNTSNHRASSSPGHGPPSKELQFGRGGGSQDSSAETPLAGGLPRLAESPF

Binder | In vitro activity compared with native peptide (%) vs GIP (cAMP EC50) [1] [%] | In vitro activity compared with native peptide (%) vs GLP-1 (cAMP EC50) [2] [%] | In vitro activity compared with native peptide (%) vs Glucagon (cAMP EC50) [3] [%]
{Acetyl(2-(4-imidazolyl))}-[Aib]QGTFTSDYSICMDEKHQKDFVNWLLNTK (bridge 15-19) [triple agonist of SEQ ID NO: 59] | 4 | 40.3 | < 0.1
{Acetyl(2-(4-imidazolyl))}-[Aib]QGTFTSDYSIAMDEKHCKDFVNWLLNTK (bridge 15-19) [triple agonist of SEQ ID NO: 60] | 8.2 | 106 | < 0.1
{Acetyl(2-(4-imidazolyl))}-[Aib]QGTFTSDYSIAMDEIACKDFVNWLLNTK (bridge 15-19) [triple agonist of SEQ ID NO: 61] | 2.8 | 59.8 | < 0.1
{Acetyl(2-(4-imidazolyl))}-[Aib]QGTFTSDKSKYLDERAAQDFVQWLLDGGPSSGAPPPS [triple agonist of SEQ ID NO: 62] | < 0.1 | 5.2 | < 0.1
{Acetyl(2-(4-imidazolyl))}-[Aib]QGTFTSDCSKYLDERAAQDFVQWLLDGGPSSGAPPPS [triple agonist of SEQ ID NO: 63] | < 0.1 | 15.3 | < 0.1
Y[Aib]QGTFTSDYSKYLDECAAKEFVQWLLDHHPSSGQPPPS (bridge 16-20) [triple agonist of SEQ ID NO: 64] | 92.9 | 64.6 | 60.1
H[Aib]QGTFTSDVSKYLDGQAAKEFVAWLLKGC [triple agonist of SEQ ID NO: 7] | < 0.1 | 13.7 | < 0.1
H[Aib]QGTFTSDYSKCLDEKRAKEFVQWLLDHHPSSGQPPPS (bridge 16-20) [triple agonist of SEQ ID NO: 65] | 11.6 | 95.4 | 25.2
Y[Aib]QGTFTSDYSKYLDECRAKDFVQWLLDHHPSSGQPPPS (bridge 16-20) [triple agonist of SEQ ID NO: 66] | 17.2 | 15.8 | 172
Y[Aib]QGTFTSDYSKYLDECAAKDFVQWLLDHHPSSGQPPPS (bridge (positions not given here); ends not checked; also: ring formation between two underlined residues) [triple agonist of SEQ ID NO: 67] | 39.8 | 28.5 | 46.2
Y[Aib]QGTFTSDYSKCLDEKAAKEFVQWLLDHHPSSGQPPPS (bridge 16-20) [triple agonist of SEQ ID NO: 68] | 107 | 27.9 | 8.8
Y[Aib]QGTFTSDYSKCLDERAAKEFVQWLLDHHPSSGQPPPS (bridge 16-20) [triple agonist of SEQ ID NO: 69] | 62.8 | 24.3 | 9.6
Y[Aib]QGTFTSDYSKCLDEKRAKDFVQWLLDHHPSSGQPPPS (bridge 16-20) [triple agonist of SEQ ID NO: 70] | 64.4 | 15.1 | 71.3
Y[Aib]QGTFTSDYSKYLDERACKDFVQWLLDHHPSSGQPPPS (bridge 16-20) [triple agonist of SEQ ID NO: 71] | 94.7 | 90.1 | 12.7
Y[Aib]QGTFTSDCSKYLDERAAKDFVQWLLDHHPSSGQPPPS (bridge 16-20) [triple agonist of SEQ ID NO: 72] | 1.6 | 11.5 | 1
{Acetyl(2-(4-imidazolyl))}-[Aib]QGTFTSDYSKYLDECRAKEFVQWLLDHHPSSGQPPPS (bridge 15-19) [triple agonist of SEQ ID NO: 73] | 3 | 22.6 | 5.4
{Acetyl(2-(4-imidazolyl))}-[Aib]QGTFTSDYSKCLDEKRAKEFVQWLLDHHPSSGQPPPS (bridge 15-19) [triple agonist of SEQ ID NO: 74] | 1 | 12.9 | 0.9
H[Aib]QGTFTSDVSKYLDGQAAQEFVAWLLKGC [triple agonist of SEQ ID NO: 8] | < 0.1 | 14.2 | 0.1
Y[Aib]QGTFTSDYSKYLDEKAAKEFVQWLLDHHPSSGQPPPSC (bridge 16-20) [triple agonist of SEQ ID NO: 75] | 18 | 35.1 | 8.5
Y[Aib]QGTFTSDYSKYLDEKRAKDFVQWLLDHHPSSGQPPPSC (bridge 16-20) [triple agonist of SEQ ID NO: 76] | 11.7 | 10.3 | 47.6
Y[Aib]QGTFTSDYSKYLDEKAAKDFVQWLLDHHPSSGQPPPSC (bridge 16-20) [triple agonist of SEQ ID NO: 77] | 35.5 | 38.7 | 12.2
H[Aib]QGTFTSDYSKYLDEKRQKEFVQWLLDTKC (bridge 16-20) [triple agonist of SEQ ID NO: 78] | 0.12 | 51 | 14
H[Aib]EGTFTSDYSIAMDEIHQKDFVNWLLAQKC (bridge 16-20) [triple agonist of SEQ ID NO: 79] | 1.4 | 41.5 | 4.9
H[Aib]EGTFTSDYSIAMDEIHQKDFVDWLLAEKC (bridge 16-20) [triple agonist of SEQ ID NO: 80] | 0.1 | 8.1 | 0
[Acetyl(2-(4-imidazolyl))][Aib]QGTFTSDYSKYLDEKRQKEFVQWLLNTC (bridge 16-20) [triple agonist of SEQ ID NO: 81] | < 0.1 | 7.8 | 0.3
[Acetyl(2-(4-imidazolyl))][Aib]QGTFTSDYSKYLDEKRQKEFVQWLLDTC (bridge 16-20) [triple agonist of SEQ ID NO: 82] | < 0.1 | 9.5 | 1.1
[Acetyl(2-(4-imidazolyl))][Aib]EGTFTSDYSIAMDEIHQKDFVNWLLAQC (bridge 16-20) [triple agonist of SEQ ID NO: 83] | 0.4 | 47.3 | 1.3
